Tested on: prothrombin

**Q.** “recombinant prothrombin activating protease (rLopap)” was tested. Which “prothrombin activation (thrombin formation followed with S-2238 chromogenic substrate)” value did it give?
**A.** Its value is “The native Lopap and the rLopap are able to activate prothrombin using preferentially the S-2238 substrate”.

**Q.** What about the “prothrombin activation, compared with native Lopap” value of the same substance?
**A.** Its value is “in same concentrations, rLopap is less efficient”.

**Q.** What about the “prothrombin hydrolysis (SDS-PAGE of fragments; prothrombin 10 uM, rLOPAP 2 uM)” value of the same substance?
**A.** The value was “Under non-reduced conditions bands of 72 kDa (prothrombin), of 52 kDa probably corresponding to the prothrombin F1.2, one of 36 kDa corresponding to the thrombin or to the prethrombin 2, and one of 24 kDa corresponding to the fragment 1 (F1) of the prothrombin could be observed”.

**Q.** What about the “prothrombin hydrolysis in presence and absence of Factor Va (SDS-PAGE)” value of the same substance?
**A.** Its value is “The same hydrolysis standards were obtained in presence and in absence of the Factor Va”.

From patent US20080267944
